Assays:
HA-KANK1 = assay: Streptavidin pull down of BioGFP-talin1 constructs with HA-KANK1, Western blot; type: binding; settings: HEK293T cells
Description: (§1) BioGFP-tagged KANK1 mutants were constructed using PCR and pBioGFP-C1 vector as previously described ([van der Vaart et al., 2013]). Rescue constructs for BioGFP-tagged KANK1 were either based on the version previously described ([van der Vaart et al., 2013]) or a version obtained by PCR-based mutagenesis of the sequence […] to […]. mCherry-tagged paxillin construct was made by replacing GFP from pQC-GPXN ([Bouchet et al., 2011]) by mCherry (pmCherry-C1, Clontech). TagRFP-tagged paxillin construct was made by PCR-based amplification and cloning in pTagRFP-T-C1 (kind gift from Y. Mimori-Kiyosue, Riken Institute, Japan). HA-tagged KANK1 construct was generated by cloning KANK1 coding sequence into pMT2-SM-HA (gift of C. Hoogenraad, Utrecht University, The Netherlands). pLVX-IRES-Neo (pLVIN) vectors was constructed by cloning the IRES-neomycin resistance cassette from the pQCXIN plasmid (Clontech) into the pLVX-IRES-Puro plasmid (Clontech). […]
(§2) Streptavidin-based pull down assays of biotinylated proteins expressed using pBioGFP-C1 constructs transfected in HEK293T cells was performed and analyzed as previously described ([van der Vaart et al., 2013]). […] For RP-nanoLC-MS/MS, samples were resuspended in 10% formic acid (FA) / 5% DMSO and was analyzed using a Proxeon Easy-nLC100 (Thermo Scientific) connected to an Orbitrap Q-Exactive mass spectrometer. […]

GFP-talin1 = assay: Streptavidin pull down of BioGFP-KANK1 constructs with GFP-talin1, Western blot; type: binding, mouse
Description: as §1, §2

B1: KANK1: full-length KANK1, BioGFP- or GFP-tagged; siRNA-resistant version for rescue (protein)
chain: MAHTTKVNGSASGKAGDILSGDQDKEQKDPYFVETPYGYQLDLDFLKYVDDIQKGNTIKRLNIQKRRKPSVPCPEPRTTSGQQGIWTSTESLSSSNSDDNKQCPNFLIARSQVTSTPISKPPPPLETSLPFLTIPENRQLPPPSPQLPKHNLHVTKTLMETRRRLEQERATMQMTPGEFRRPRLASFGGMGTTSSLPSFVGSGNHNPAKHQLQNGYQGNGDYGSYAPAAPTTSSMGSSIRHSPLSSGISTPVTNVSPMHLQHIREQMAIALKRLKELEEQVRTIPVLQVKISVLQEEKRQLVSQLKNQRAASQINVCGVRKRSYSAGNASQLEQLSRARRSGGELYIDYEEEEMETVEQSTQRIKEFRQLTADMQALEQKIQDSSCEASSELRENGECRSVAVGAEENMNDIVVYHRGSRSCKDAAVGTLVEMRNCGVSVTEAMLGVMTEADKEIELQQQTIESLKEKIYRLEVQLRETTHDREMTKLKQELQAAGSRKKVDKATMAQPLVFSKVVEAVVQTRDQMVGSHMDLVDTCVGTSVETNSVGISCQPECKNKVVGPELPMNWWIVKERVEMHDRCAGRSVEMCDKSVSVEVSVCETGSNTEESVNDLTLLKTNLNLKEVRSIGCGDCSVDVTVCSPKECASRGVNTEAVSQVEAAVMAVPRTADQDTSTDLEQVHQFTNTETATLIESCTNTCLSTLDKQTSTQTVETRTVAVGEGRVKDINSSTKTRSIGVGTLLSGHSGFDRPSAVKTKESGVGQININDNYLVGLKMRTIACGPPQLTVGLTASRRSVGVGDDPVGESLENPQPQAPLGMMTGLDHYIERIQKLLAEQQTLLAENYSELAEAFGEPHSQMGSLNSQLISTLSSINSVMKSASTEELRNPDFQKTSLGKITGNYLGYTCKCGGLQSGSPLSSQTSQPEQEVGTSEGKPISSLDAFPTQEGTLSPVNLTDDQIAAGLYACTNNESTLKSIMKKKDGNKDSNGAKKNLQFVGINGGYETTSSDDSSSDESSSSESDDECDVIEYPLEEEEEEEDEDTRGMAEGHHAVNIEGLKSARVEDEMQVQECEPEKVEIRERYELSEKMLSACNLLKNTINDPKALTSKDMRFCLNTLQHEWFRVSSQKSAIPAMVGDYIAAFEAISPDVLRYVINLADGNGNTALHYSVSHSNFEIVKLLLDADVCNVDHQNKAGYTPIMLAALAAVEAEKDMRIVEELFGCGDVNAKASQAGQTALMLAVSHGRIDMVKGLLACGADVNIQDDEGSTALMCASEHGHVEIVKLLLAQPGCNGHLEDNDGSTALSIALEAGHKDIAVLLYAHVNFAKAQSPGTPRLGRKTSPGPTHRGSFD
modifications: biotinylated on the Bio tag (by BirA); left off: biotinylation (Bio) tag, end not stated, kept | GFP, end not stated, kept
notes: full-length KANK1, BioGFP- or GFP-tagged; siRNA-resistant version for rescue
With B1 the “interaction of talin1 constructs with KANK1 (in words)” value (HA-KANK1) was “binds to the talin1 rod domain R7”, the “effect of 4A mutation on interaction with talin1 (in words)” value (GFP-talin1; 4A mutation introduced into the construct, HEK293T cells, Figure 3A) was “reduced the interaction of the full-length KANK1 with talin1” and the “interaction with talin1 in pull down (in words)” value (GFP-talin1; BioGFP-KANK1 constructs co-expressed with GFP-talin1, HEK293T cells) was “The interaction between KANK1 and talin1 was confirmed by Western blotting”.

— article PMC4995097, “Talin-KANK1 interaction controls the recruitment of cortical microtubule stabilizing complexes to focal adhesions” (eLife, 2016)
